Substitutions are numbered along the chain they refer to.
B1: COV_2169 (antibody, V domains shown)
VH: EVQLVESGGGVVQPGRSLRLSCAASGFTFSRYAMHWVRQAPGKGLEWVAVISYEGSNKYYADSVKGRFTISRNNSNNTLSLQMNSLRPDDTAVYYCVRSGGHYFDAFDLWGQGTMVTVSS
VL: EIVLTQSPGTLSLSPGERATLSCRASQSVSRNYVAWYQQKPGQAPRLLIYGASSRATGIPDRFSGSGSGTDFTLTISRLEPEDFALYYCQQYGSSYTFGQGTKLEIKR
notes: human IgG1
B2: COV_1184 (antibody, V domains shown)
VH: QVQLQQWGAGLLKPSETLSLTCAVYGGSFSGYYWSWIRQPPGKGLEWIGEINHSGNTTYNPSLKSRVTISVDTSKNQFSLKLSSVTAADTAVYYCARGLVITYYYDSSGKPFDPWGQGTLVTVSS
VL: not shown
notes: human IgG1
B3: COV_2205 (antibody, V domains shown)
VH: EVQLVESGGGLVKPGGSLRLSCAASGFTFSDYYMIWIRQAPGEGLEWVSYISSRSSYTNYADSVKGRFTISRDNARNSLYLQMNSLRAEDTAVYYCARGQHDLLTGYYSWAYFDYWGQGTLVTVSS
VL: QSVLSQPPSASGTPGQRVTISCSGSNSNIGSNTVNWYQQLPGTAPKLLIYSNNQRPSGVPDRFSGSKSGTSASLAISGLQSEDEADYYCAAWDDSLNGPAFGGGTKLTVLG
notes: human IgG1
B4: COV_1145 (antibody, V domains shown)
VH: QVQLVESGGGVVQPGRSLRLSCAASGFTFSSYGMHWVRQAPGKGLEWVAVIWYDGSNKYYADSVKGRFTISRDNSKNTLYLQMNSLRVEDTAVYYCAREGQLGATGLDCWGQGTLVSVSS
VL: SYELTQPPSVSVSPGQTARITCSGDALPKKYAYWYQQKSGQAPVLVIYEDSKRPSGIPERFSGSSSGTMATLTISGAQVEDEADYYCYSTDNSGNHWVFGGGTKLTVLG
notes: human IgG1
B5: COV_2215 (antibody, V domains shown)
VH: EVQLVESGGGLVKPGGSLRLSCAASGFTFSHAWMSWVRQAPGKGLEWVGRIKSKTDGGTADYAAPVKGRFTISRDDSKNTLYLQMNSLKTEDTAVYYCATIRYYYDSSAYLNDAFDIWGQGTMVTVSS
VL: B4 VL with N92S, W97R, G100A
notes: human IgG1
B6: COV_1136 (antibody, V domains shown)
VH: EVQLVESGGGLVKPGGSLRLSCAASGFTFSDCNMNWVRQAPGKGLEWVSSISSRSSYIYYADSVKGRFTISRDNAKNSLYLQMNSLRAEDTAVYSCAREASGAYYFDRSGYFDYWGQGTLVTVSP
VL: DIQMTQSPSTLSASVGDRVTITCRASQSISSWLAWYQQKPGKAPNLLIYKASSLESGVPSRFSGSGSGTEFTLTISSLQPDDFATYYCQQYNTYPWTFGQGTKVEIKR
notes: human IgG1
B7: COV_3069 (antibody, V domains shown)
VH: EVQLVESGGGLVKPGGSLRLSCAASGFTFGSYTMNWVRQAPGKGLEWVSSIDTTSSSIYYADSLKGRFAISRDSAKNSLYLQMNRLRAEDTAVYYCARGNGHSYDSSGYHYGMYFDYWGQGTLVTVSS
VL: B6 VL with S31R, N45K, K50E, A51V, S56N, G66R, T85I, P95S, W96R
notes: human IgG1
B8: COV_1154 (antibody, V domains shown)
VH: B6 VH with T28R, C32Y, S50Y, R54S, A88G
VL: B6 VL with D81Y, T93S, T97A, I106M
notes: human IgG1
B9: COV_3129 (antibody, V domains shown)
VH: QVQLQQWGAGLLKPSDTLSLTCAANGGGSFSGYYLGYIRQSPGKGLEWIGEINHNGGTNYNPSLKSRVTISGDTSKNQFSLKLSSVTAADTAIYYCARSRDSSLGDAVWYEYWGQGTLITVSS
VL: EIVLTQSPATLSLSPGERATLSCRASQSVDIYLAWYQQRPGQAPRLLISDASKRATGVPARFSGSGSGTDFTLTINSLEPEDFAIYYCQQRRDWPINFGQGTRLEIKR
notes: human IgG1
B10: COV_1177 (antibody, V domains shown)
VH: QVQLVESGGGVVQPGRSLRLSCAASGFTFSSYGMHWVRQAPGKGLEWVAVIWYDGSNKYYADSVKGRFTISRDNSKNTLYLQMNSLRAEDTAVYYCARDPLGAVAGYFDYWGQGTLVTVSS
VL: SYVLTQPPSVSVAPGQTARITCGGNNIGSKSVHWYQQKPGQAPVLVVYDDSDRPSGIPERFSGSNSGNTATLTISRVEAGDEADYYCQVWDSSSDHHWVFGGGTKLTVLG
notes: human IgG1
B11: COV_2125 (antibody, V domains shown)
VH: EVQLVESGGGVVQPGRSLRLSCAASGFTFSSYGMHWVRQAPGKGLEWVAVISYDGSNKYYADSVKGRFTISRDNSKNTLSLQMNSLRPEDTAVYYCAKDSPYYYDSSGYYPGYFQDWGQGSLVTVSS
VL: DIQMTQSPSSLSASIGDRVTITCRASQTISDYLNWYQQKPGKAPNLLIYAASTLQSGVPSRFSGSGSGTDFTLTISSLQPEDFATYYCQQSYITPRTFGQGTKVEIK
notes: human IgG1
B12: COV_1201 (antibody, V domains shown)
VH: QVQLVQSGAEVKKPGASMKVSCKASGYTFTGYYIHWVRQAPGQGLEWMGRINPNSGGTNYAQKFQGRVTMTRDTSISTAYMELSRLRSDDTAVYYCAREYYYVPYGMDVWGQGTTVTVSS
VL: QSALTQPASVSGSPGQSITISCTGTSSDVGGYNFVSWYQHHPGKAPKLMIYEVSNRPSGVSNRFSGSKSGNTASLTISGLQAEDEADYYCSSYTSSSTYVFGTGTKVTVL
notes: human IgG1

Legend:
[1] = molecular target: T1, HCoV-HKU1 spike antigens (bead panel) (HCoV-HKU1, UniProt Q5MQD0 13-1300); test: multiplex bead assay
T1 sequence: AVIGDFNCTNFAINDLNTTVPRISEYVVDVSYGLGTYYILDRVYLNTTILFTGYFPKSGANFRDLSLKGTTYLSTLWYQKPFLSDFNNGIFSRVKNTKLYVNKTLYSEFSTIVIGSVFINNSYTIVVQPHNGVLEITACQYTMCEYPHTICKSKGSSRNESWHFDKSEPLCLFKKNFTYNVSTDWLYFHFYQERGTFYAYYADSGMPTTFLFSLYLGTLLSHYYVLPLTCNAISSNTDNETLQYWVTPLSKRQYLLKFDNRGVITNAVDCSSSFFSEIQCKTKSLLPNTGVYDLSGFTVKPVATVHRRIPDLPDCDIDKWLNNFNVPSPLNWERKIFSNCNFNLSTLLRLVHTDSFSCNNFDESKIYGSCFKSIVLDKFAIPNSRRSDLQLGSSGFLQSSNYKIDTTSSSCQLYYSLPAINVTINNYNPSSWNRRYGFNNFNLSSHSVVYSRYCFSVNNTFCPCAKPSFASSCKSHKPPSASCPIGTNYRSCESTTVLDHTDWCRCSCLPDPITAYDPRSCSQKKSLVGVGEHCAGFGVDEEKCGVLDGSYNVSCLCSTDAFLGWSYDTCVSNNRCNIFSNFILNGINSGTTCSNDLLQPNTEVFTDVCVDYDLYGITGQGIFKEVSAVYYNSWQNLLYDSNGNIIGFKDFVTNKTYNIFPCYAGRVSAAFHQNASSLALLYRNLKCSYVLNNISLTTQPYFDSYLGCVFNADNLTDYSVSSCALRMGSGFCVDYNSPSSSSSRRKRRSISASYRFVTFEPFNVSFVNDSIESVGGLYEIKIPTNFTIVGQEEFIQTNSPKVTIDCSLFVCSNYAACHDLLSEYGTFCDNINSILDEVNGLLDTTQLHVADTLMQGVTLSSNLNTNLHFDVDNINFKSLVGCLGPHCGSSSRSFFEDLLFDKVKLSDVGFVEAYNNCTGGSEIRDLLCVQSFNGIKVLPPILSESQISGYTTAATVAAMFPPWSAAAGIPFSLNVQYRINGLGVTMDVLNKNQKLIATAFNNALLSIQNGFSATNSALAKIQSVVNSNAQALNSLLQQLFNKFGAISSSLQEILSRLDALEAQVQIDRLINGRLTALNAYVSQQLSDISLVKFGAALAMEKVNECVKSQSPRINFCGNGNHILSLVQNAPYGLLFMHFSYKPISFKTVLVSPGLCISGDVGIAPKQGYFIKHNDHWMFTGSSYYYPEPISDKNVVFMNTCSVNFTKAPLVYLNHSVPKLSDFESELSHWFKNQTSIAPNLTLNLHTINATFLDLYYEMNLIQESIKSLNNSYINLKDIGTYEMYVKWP

[2] = molecular target: SARS-CoV-1 spike antigens (bead panel) (SARS-CoV-1, UniProt P59594 14-1195); test: multiplex bead assay
[3] = molecular target: T2, HCoV-229E spike antigens (bead panel) (HCoV-229E, UniProt P15423 16-1115); test: multiplex bead assay
T2 sequence: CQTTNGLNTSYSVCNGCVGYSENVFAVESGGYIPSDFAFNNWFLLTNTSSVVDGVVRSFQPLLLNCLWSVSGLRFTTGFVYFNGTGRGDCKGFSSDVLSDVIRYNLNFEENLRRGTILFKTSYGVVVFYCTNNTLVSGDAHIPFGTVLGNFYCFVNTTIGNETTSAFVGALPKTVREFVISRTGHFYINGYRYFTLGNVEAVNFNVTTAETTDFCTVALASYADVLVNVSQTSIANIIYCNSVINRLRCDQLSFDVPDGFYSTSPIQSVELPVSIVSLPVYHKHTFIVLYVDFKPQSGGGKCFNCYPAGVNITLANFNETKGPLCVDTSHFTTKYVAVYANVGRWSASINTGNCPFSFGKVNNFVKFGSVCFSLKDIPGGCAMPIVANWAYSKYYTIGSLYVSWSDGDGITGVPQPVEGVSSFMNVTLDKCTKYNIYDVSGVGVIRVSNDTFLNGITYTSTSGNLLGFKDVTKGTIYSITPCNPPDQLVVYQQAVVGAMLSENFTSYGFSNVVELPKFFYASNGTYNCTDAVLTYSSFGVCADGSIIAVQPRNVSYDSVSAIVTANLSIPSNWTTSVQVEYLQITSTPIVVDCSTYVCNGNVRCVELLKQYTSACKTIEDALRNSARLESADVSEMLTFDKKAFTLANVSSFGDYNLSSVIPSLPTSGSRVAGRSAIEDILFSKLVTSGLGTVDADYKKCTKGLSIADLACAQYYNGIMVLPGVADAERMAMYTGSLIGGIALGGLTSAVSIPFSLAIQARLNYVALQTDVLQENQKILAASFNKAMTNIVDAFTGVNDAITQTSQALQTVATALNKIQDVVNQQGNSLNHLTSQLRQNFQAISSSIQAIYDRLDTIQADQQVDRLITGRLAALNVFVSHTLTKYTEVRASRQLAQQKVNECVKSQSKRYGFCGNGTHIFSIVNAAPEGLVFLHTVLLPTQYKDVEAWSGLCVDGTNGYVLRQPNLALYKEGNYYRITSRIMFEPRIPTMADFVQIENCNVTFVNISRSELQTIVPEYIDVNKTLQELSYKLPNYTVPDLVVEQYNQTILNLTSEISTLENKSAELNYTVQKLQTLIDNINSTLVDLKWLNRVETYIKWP

[4] = molecular target: SARS-CoV-2 S on pseudovirions (Wuhan Hu-1 / IL1/2020, last 18 amino acids removed) (SARS-CoV-2, UniProt P0DTC2 14-1273); test: cell-based or functional assay

Binder | binding result [1] | binding result [2] | binding result [3] | Mean IC50, pSV neutralization [4] | Mean IC80, pSV neutralization [4]
B1 | no binding | no binding | no binding |  | 
B2 | no binding | no binding | no binding |  | 
B3 | no binding | no binding | no binding |  | 
B4 | no binding | no binding | no binding |  | 
B5 | no binding | no binding | no binding |  | 
B6 | no binding | no binding | no binding |  | 
B7 | no binding | no binding | no binding |  | 
B8 | no binding | no binding | no binding |  | 
B9 | no binding | no binding | no binding |  | 
B10 | no binding | no binding | no binding |  | 
B11 | no binding | no binding | no binding |  | 
B12 | no binding | no binding | no binding | 0.09 µg/ml | 0.3 µg/ml

Reference: patent US20240101645A1 (HENRY M JACKSON FOUNDATION FOR THE ADVANCEMENT OF MILITARY …, published 2024)
